Measurements taken from the supplement of paper PMC9170038.

System: MS2 coat protein
Assay: apparent KD of MS2 coat protein; designed switch direction (-1 OFF switch, 1 ON switch): -1; higher = weaker reporter binding
Method in brief: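 On Illumina chips, designed RNA switches with common flanks were made by stalled E. coli RNA polymerase. Titrations with SNAP-549-labelled MS2 coat protein, doubling from 0.7 or 1.5 nM to 3 µM, were done with no input, with 200 uM small-molecule ligand, or with an oligonucleotide input. Apparent KD is the median per design over clusters, from curve fits of normalised cluster fluorescence.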

[1] = Eterna round: R95, input ligand: FMN 200 uM
[2] = Eterna round: R95, input ligand: microRNA oligo, concentration not stated
[3] = Eterna round: R95, input ligand: none

| Sequence | apparent KD of MS2 coat protein [1] [nM] | apparent KD of MS2 coat protein [2] [nM] | apparent KD of MS2 coat protein [3] [nM] | apparent KD of MS2 coat protein (input ligand: FMN 200 uM) [nM] | apparent KD of MS2 coat protein (input ligand: none) [nM] | apparent KD of MS2 coat protein (input ligand: microRNA oligo, concentration not stated) [nM] |
| --- | --- | --- | --- | --- | --- | --- |
| AAAAAACAAGGAUAUACAAAAAAAAAAAGUGAAAAAAAACCACAUGAGGAUCACCCAUGUAGAAGGUGUAAAAA [JR_Exclusion2_Sub002] (puzzle: Exclusion 2) | 21.9 | 37.1 | 51.1 | – | – | – |
| AAAACACAUGAGGAUCACCCAUGUGAGGAUAUGUUCAUGUUCAGCAAACUGAACAUGAACAGAAGGCACAUAAA [JR_Exclusion1_Sub016] (puzzle: Exclusion 1) | 44.7 | 36.5 | 40.4 | – | – | – |
| AAAACACAUGAGGAUCACCCAUGUGAGGAUAUGUUGAUUUUGAUCAAAGUUAAGAUUAACAGAAGGCACAUAAA [JR_Exclusion1_Sub018] (puzzle: Exclusion 1) | 34.5 | 36.1 | 35.2 | – | – | – |
| AAAACGGCAGGAUAUCGGAACAAUGACAUGAGGAUCACCCAUGUGAUCGUUUCACUUGGCCGAGAAGGGCCAAAAU [Xeinbelele] (puzzle: Exclusion 5) | 54.6 | 18.6 | 17.4 | – | – | – |
| AAAACGUGAGGAUAUCCAAUAUAUGACAUGAGGAUCACCCAUGUUUCCACUCGUACCUCCGGAGAAGGCACAAUUA [Ex5 #77] (Eterna round: R97, puzzle: Exclusion 5) | – | – | – | 46.4 | 43 | – |
| AAAAGAACGGCAGGAUAUGCAAGCACUGACCUCCCAAAAUAAAGAAACAUGAGGAUCACCCAUGUGCAGAAGGGCCAAAAGUGC [Vediusin] (Eterna round: R96, puzzle: Exclusion NG 2) | – | – | – | – | – | 10.4 |
| AAAAGCAAGCAAAGAUUCUACAUGAGGAUCACCCAUGUGCUCGUCUUAUAAAGUACUAUCACGAAAGUGAUAGUACA [Sensor 3, v1 - 42] (puzzle: Sensor v3, turn-off variant 1) | 26 | 142 | 19.7 | – | – | – |
| AAAAUAAACCUCAUUUAAAACAUGAGGAUCACCCAUGUAAAAUGCUCGUCUUAUUAAAUGUACUCCUAGUUCGUACA [My solution] (Eterna round: R97, puzzle: Sensor, turn-off variant 1) | – | – | – | 178 | 251 | – |
| AAAAUGCAAGGAUAUACAUAGAUCCGACCUACUUAAAACAAACAUGAGGAUCACCCAUGUAGAAGGUGCCAAAA [Raxerebiti] (puzzle: Exclusion 2) | 44.9 | 23.7 | 25.5 | – | – | – |
| AAACAACAUGAGGAUCACCCAUGUAAGGAUAUGCGAGUUGGGUCAACGAAGGUUGAAGGCAGAAGGUAUAGGGU [Erxevees] (puzzle: Exclusion 1) | – | 49.3 | – | – | – | – |
| AAACAAGAAGGAUAUACAUUAUCGGAUCUUCCGGCAAUGCCACAUGAGGAUCACCCAUGUAGAAGGUCUAAAUU [Ralabi] (puzzle: Exclusion 2) | – | 12.3 | – | – | – | – |
| AAACACACAGGAUAUGAGAGGCGGUACAUGAGGAUCACCCAUGUCCUCGGAAAUCAGCGUUCAGAAGGGUGCGGUG [Eternabot (Original) Solution 36] (Eterna round: R97, puzzle: Exclusion 5) | – | – | – | 457 | 171 | – |
| AAACACUGAGGAUAUGCGUAACAACAAAGCCUCACGUGCCAACAUGAGGAUCACCCAUGUAGAAGGCAGUCCAA [Mod R3 Insanara 17 - Jieux - Exclusion 2] (Eterna round: R97, puzzle: Exclusion 2) | – | – | – | 25.2 | 25.1 | – |
| AAACCACAUGAGGAUCACCCAUGUGAGGAUAUGAUACUAUGUACUUCGGUACAUAGUAUCAGAAGGCAUGUGGA [Ex1-3: 88] (puzzle: Exclusion 1) | – | 168 | – | – | – | – |
| AAACCCUGAGGAUAUACAUAACAACAAAGCCUCACGUGCCAACAUGAGGAUCACCCAUGUAGAAGGCAGGCCAA [Isananra] (puzzle: Exclusion 2) | – | 12.6 | – | – | – | – |
| AAACGGCGGACCGUGGCUUUUUGCUCGUCUUGUGCUUCGACAUGAGGAUCACCCAUGUGGUGGUGGUCCGUUGUAAA [Grok-var2-15 mod JAL] (puzzle: Sensor v3, turn-off variant 2) | 48.3 | 40.3 | 80.3 | – | – | – |
